Measured values from patent publication US20260184782A1 (TWIST BIOSCIENCE, published 2026).

T1: human TIGIT-Fc (human, UniProt Q495A1 22-141, limits assumed)
T1 construct: not shown: Fc; not described
T1 sequence (looked up): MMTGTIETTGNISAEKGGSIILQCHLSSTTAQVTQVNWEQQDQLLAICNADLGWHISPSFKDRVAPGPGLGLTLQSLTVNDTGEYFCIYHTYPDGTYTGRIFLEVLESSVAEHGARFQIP


Target: T1, human TIGIT-Fc
Test: CD155 competition ELISA, single point; also: test concentration or dose not given here
Experimental: TIGIT/CD155 inhibition of VHH-Fcs were assessed using an ELISA assay (Table 10B). Briefly, human TIGIT-Fc was coated on a plate & then incubated with VHH-Fcs and human CD155-biotin. Bound CD155-biotin was detected using a streptavidin-HRP conjugate visualized with TMB. Strong inhibitors from the single point screen were titrated to determine EC50 (Table 10C).

| Binder | OD (450 nm) [OD] |
| --- | --- |
| TIGIT-SC144 (Fc fusion, VHH-Fc) VHH: EVQLVESGGGLVQPGGSLRLSCAASGFTLENNMMGWFRQAPGKEREFVAAISPSGTLRAYADSVKGRFTISADNSKNTAYLQMNSLKPEDTAVYYCAGIHDSGVPLGNWGQGTLVTVSS | 0.686 |
| TIGIT-SC158 (Fc fusion, VHH-Fc) VHH: EVQLVESGGGLVQPGGSLRLSCAASGFTFSPSWMGWFRQAPGKEREWVASVLRGGYTWYADSVKGRFTISADNSKNTAYLQMNSLKPEDTAVYYCAREGRSSSPWFDPWGQGTLVTVSS | 0.472 |
| TIGIT-SC160 (Fc fusion, VHH-Fc) VHH: EVQLVESGGGLVQPGGSLRLSCAASGNTFSGGFMGWFRQAPGKEREWVASVLRGGYTWYADSVKGRFTISADNSKNTAYLQMNSLKPEDTAVYYCAREGRSSSPWFDPWGQGTLVTVSS | 0.467 |
| TIGIT-SC159 (Fc fusion, VHH-Fc) VHH: EVQLVESGGGLVQPGGSLRLSCAASGFTFDRSWMGWFRQAPGKEREWVASVLRGGYTWYADSVKGRFTISADNSKNTAYLQMNSLKPEDTAVYYCAREGRSSSPWFDPWGQGTLVTVSS | 0.749 |
| TIGIT-SC202 (Fc fusion, VHH-Fc) VHH: EVQLVESGGGLVQPGGSLRLSCAASGFTFSPSWMGWFRQAPGKEREWVASVLRGGYTWYADSVKGRFTISADNSKNTAYLQMNSLKPEDTAVYYCTTDGGYSGIVGFAWGQGTLVTVSS | 0.545 |
| TIGIT-SC154 (Fc fusion, VHH-Fc) VHH: EVQLVESGGGLVQPGGSLRLSCAASGFAFSSDWMGWFRQAPGKEREWVASVLRGGYTWYADSVKGRFTISADNSKNTAYLQMNSLKPEDTAVYYCAGDYRGFEMAFDPWGQGTLVTVSS | 0.465 |
| TIGIT-SC155 (Fc fusion, VHH-Fc) VHH: EVQLVESGGGLVQPGGSLRLSCAASGNTFSGGFMGWFRQAPGKEREWVASVLRGGYTWYADSVKGRFTISADNSKNTAYLQMNSLKPEDTAVYYCAGDYRGFEMAFDPWGQGTLVTVSS | 0.449 |
| TIGIT-SC104 (Fc fusion, VHH-Fc) VHH: EVQLVESGGGLVQPGGSLRLSCAASGFTFSTYTMGWFRQAPGKEREFVAAISPSGNTYYADSVKGRFTISADNSKNTAYLQMNSLKPEDTAVYYCARWGGITFGGVYPLDYWGQGTLVTVSS | 0.701 |
| TIGIT-SC147 (Fc fusion, VHH-Fc) VHH: EVQLVESGGGLVQPGGSLRLSCAASGTITSAVFMGWFRQAPGKEREFVAAVIWRGGSLKSYADSVKGRFTISADNSKNTAYLQMNSLKPEDTAVYYCAKLAVAGNYYYYGMDVWGQGTLVTVSS | 0.878 |
| TIGIT-SC136 (Fc fusion, VHH-Fc) VHH: EVQLVESGGGLVQPGGSLRLSCAASGFTLENNMMGWFRQAPGKEREFVAAISRSGTLKAYADSVKGRFTISADNSKNTAYLQMNSLKPEDTAVYYCARGGELTTFYFGYWGQGTLVTVSS | 0.571 |
| TIGIT-SC150 (Fc fusion, VHH-Fc) VHH: EVQLVESGGGLVQPGGSLRLSCAASGFTLENNMMGWFRQAPGKEREFVAAISRSGTLKAYADSVKGRFTISADNSKNTAYLQVNSLKPEDTAVYYCVRVRGYSGYDCDYWGQGTLVTVSS | 0.445 |
| TIGIT-SC143 (Fc fusion, VHH-Fc) VHH: EVQLVESGGGLVQPGGSLRLSCAASGFTLGYYVMGWFRQAPGKEREFVAAISASGTLRAYADSVEGRFTISADNSKNTAYLQMNSLKPEDTAVYYCARAELGYSYGSVDGYWGQGTLVTVSS | 0.626 |
| TIGIT-SC105 (Fc fusion, VHH-Fc) VHH: EVQLVESGGGLVQPGGSLRLSCAASGFAFSRYGMGWFRQAPGKERELVATIGWSGSSTFYADSVKGRFTISADNSKNTAYLQMNSLKPEDTAVYYCARDGGPYYYGLDVWGQGTLVTVSS | 0.959 |
| TIGIT-SC133 (Fc fusion, VHH-Fc) VHH: EVQLVESGGGLVQPGGSLRLSCAASGFTLENNMMGWFRQAPGKEREFVAAISASGTLRAYADSVKGRFTISADNSKNTAYLQMNSLKPEDTAVYYCACGRVSGAFIYFDYWGQGTLVTVSS | 0.284 |
| TIGIT-SC146 (Fc fusion, VHH-Fc) VHH: EVQLVESGGGLVQPGGGLRLSCAASGFTLENNMMGWFRQAPGKEREFVAAISASGTLRAYADSVKGRFTISADNSKNTAYLQMNSLKPEDTAVYYCAKGGQAGPMAFYFDYWGQGTLVTVSS | 0.423 |
| TIGIT-SC137 (Fc fusion, VHH-Fc) VHH: EVQLVESGGGLVQPGGSLRLSCAASGFTLENNMMGWFRQAPGKEREFVAAISRSGTLKAYADSVKGRFTISADNSKNTAYLQMNSLKPEDTAVYYCSLVSGPRWYWGQGTLVTVSS | 0.306 |
| TIGIT-SC141 (Fc fusion, VHH-Fc) VHH: EVQLVESGGGLVQPGGSLRLSCAASGNAFSSSVMGWFRQAPGKEREFVAGIWRSGSLKAYADSVKGRFTISADNSKNTAYLQMNSLRPEDTAVYYCARAYVGMTTVTFDHWGQGTLVTVSS | 0.633 |
| TIGIT-SC145 (Fc fusion, VHH-Fc) VHH: EVQLVESGGGLVQPGGSLRLSCAASGNTFSGGFTLGYYVMGWFRQAPGKEREFVAAISRSGTLKAYADGVKGRFTISADNSKNTAYLQMNSLKPEDTAVYYCARVEAYGDPLGYWGQGTLVTVSS | 0.432 |
| TIGIT-SC148 (Fc fusion, VHH-Fc) VHH: EVQLVESGGGLVQPGGSLRLSCAASGDIGSINAMGWFRQAPGKEREFVAGIWRSGNLKAYADSVKGRFTISADNSKNTAYLQMSSLKPEDTAVYYCARGNIVVVPAAFVIWFDPWGQGTLVTVSS | 0.52 |
| TIGIT-SC134 (Fc fusion, VHH-Fc) VHH: EVQLVESGGGLVQPGGSLRLSCAASGFTLENNMMGWFRQAPGKEREFVAAISASGTLRAYADSVKGRFTISADNSKNTAYLQMNSLKPEDTAVYYCARWYRVNNWSPGYYYYMDVWGQGTLVTVSS | 0.845 |
| TIGIT-SC142 (Fc fusion, VHH-Fc) VHH: EVQLVESGGGLVQPGGSLRLSCAASGFSFDRWAMGWFRQAPGKEREFVAAIGWSGNLKAYADSVKGRFTISADNSKNTAYLQMNSLKPEDTAVYYCASGDGYSMDYFDPWGQGTLVTVSS | 0.69 |
| TIGIT-SC140 (Fc fusion, VHH-Fc) VHH: EVQLVESGGGLVQPGGSLRLSCAASGNTFSGGFTFDRSWMGWFRQAPGKEREWVASVLRGGYTWYADSVKGRFTISADNSKNTAYLQMNSLKPEDTAVYYCAGDRYYDFWSGPNSGDYWGQGTLVTVSS | 0.708 |
| TIGIT-SC139 (Fc fusion, VHH-Fc) VHH: EVQLVESGGGLVQPGGSLRLSCAASGFTLENNMMGWFRQAPGKEREFVAAISRSGTLKAYADSVKGRFTISADNSKNTAYLRMNSLKPEDTAVYYCAGLTSGGAFSYYWGQGTLVTVSS | 0.51 |
